Results from US20240026407A1, “MODIFICATION OF SAPONINS” (GLAXOSMITHKLINE BIOLOGICALS SA, priority 2020, published 2024).

B1: 1072 (protein, listed as Kribbella flavida)
chain: MAEPVAPDGWTSGGPLAVAKLTAEYAEEPHGTDEVRPRLAWIATAPGYGATQSAYQVLVASQPELLSPEQADVWDSGQVGSDAVQVAYDGPALAARTRYHWAVRLWDGQGRAGRWSRPSWFETALLDEGFGAARWIGASTEAAPLLRRPFELTGPVRRARLYASGLAYAVLRVNGQQVGDAVLDPGFTNYDRTVLYVTHDVTELLQAGENVLGAELGRGFFGMTTPNVWRWHQAPWTGDPRLLARLVIDHEDGTTTELVSDGSWRVTSGPTVSDSLYAGERYDARLAQPGWDAPGFDDAAWSPAVELTAPQGTLRAQAHEPIRVVEEVAPVAISSPRAGVQVIDFGRTTAGWAKLRVEAPAGSRFTLVYGETLTADGQVEATNRHVDGDRFQQDEYVAAGHEIEQWEPRFSYKGFRYLQVTGDAEAEVVLKVVHSDVRAASRFDSDVEVYSWLEQAMRRTVLNNLHGIPTDTPIFEKNGWTGDAQVGAPTMASLVDLARFFTKWLDDLRDSQLPDGRLPVIVPSAGWGYAELAPATEWSTVYPFLLREMHRWYGDTRVLADHWDAVLRYLDWELERVEDGLSISVLGDWLPPGYPDGPPPEDSRLTATAYLHRAVTAVVEIGELIGETSELERLRKAAAELADGLNREFLDREAGLYRTAADPDYRQTSNAVPLAFGLVPEDQVPRVVANLVADVQARDFHLNTGCLGVGVLLPVLTQYGHADVAAKLAQQRTYPSWGYWLEEGADTLWEMWEADTRSRNHYFHGTVVQWLLESVAGLRNVGNGWQRIVVRPDARTGSTSAALRTDTVRGRVAASWRLVGRVLQLEVQVPVGCVAEVHVPSEAAADVTAVPSPYAGEPTRSDGYTVYTVPSGQWHFTSRTA
B2: 1025 (protein, listed as Bacteroides xylanisolvens)
chain: MKKDYMKYQQNSKREEKSKFITNQLTNMAHISIRSYLYLLGTTLFSCAPQELKTPFELKCENIPVPVGVDTQTPRLSWKLPLLEEDSINRVEIWLSTDSTQLSGRQSGYWNKSIIGAPIRVSYDGQPLDSYTTYYWKIGYQTSSKQKTTFSPISSFTTGCLSPDNWKGKWITDKHDITYRPAPYYRKSFQLDKTIEQALLTIASAGLHELSVNGQRAGNHFLDPMYTHFDKRILSVTHDVTSLLSLGENVIGVQLGNGWYNHQSTAVWFFDKASWRNRPKFTAQLHLRYTDGTTEYLGTDSTWQTTDSPVIFNSIYTAEHYDAQKELAGWDSPGFNATGWYHAQETESPTETIKSQVMHPIRETARYTATQCKKINDSCYVYHFPKNIAGVTELKVKGKKGTKLRLKHGELLDKNGMVNMANIDYHYRPTDDSDPFQTDIVILSGKQDRFMPKFNYKGFQFVEVSSSAPIQLSDENLIAVEMHSDIPAIGYWSSSSDLLNKIWKATNSSYLANLFGYPTDCPQREKNGWTGDAHITIETGLYNFDGISIYEKWMNDFCDEQKDNGILPCIIPTSVWGYDWANGVDWTSAVAIIPWEIYRFYGDTTLLRRMYGPIKKYVSYIESISTNHLTDWGLGDWVPVRSKSNITLTSSIYYYTDVCILAKAARLFGYAEDASYYNTLAQKIKEAINTSFLNKETGIYAEGTQTELAMPLYWGIVPEEDKKKVAARLHELVEKDDYHLDVGLLGSKALLSAMSDNGYAETAYKVASQDTYPSWGVLDQTRCYNST
B3: 1021 (protein, listed as Paenibacillus sp.)
chain: MLQPYAPAIKNYYSAIGIDTPKPIFVWKLSSPLRNQKQTHYRITVAENAESLEEENNLLWDSGKVASDEQLGVMYKGSPLESTSRYCWRVAIWDSSGQSLWSEVQYFITGYLNSEHWSAKWIGDGSDAPFYARYEFDLNKKVKQAFALVSGLGQFKFYMNGRQVGDHEMDPGWTNYHKSVQYVGFDITDHLQSGKNAVGLHVGNGFFAGASGGRHFYTMDKGYEPYGDQLVAIGEWHIEFEDGSRIILRTGEEGWKVHESATTLANVYGSENFDARLYPDGYHVPGFDDSGWKPAQLLKPPAGNLVQQNQPPVKVKQVYDTLSVAEPLPGVYVFDLGQNMAGMFEIYASGPAGSKVIIKPGELMREDGTIATPWDIVTYSEFILAGTGEVEVWKPDFSYYGARWVQIEGCTRDEADTGRPMIHDVKGHFITSASQDTGTLSTDDVRIDKLADIITKAIESNLQSVHTDCPTIEKLGWLEASALMGPSIVYVKQAEELFLKIVRDMMEAQTEEGLIPDIAPEYSLFPDGFRDSIAWGIALLMVPDLLLERYNNFTAIEVAYPAMKRYMDYLKSKEIHDGLIGHGLGDWGIQPQTGGDYIENVETAFYYEGYRLMAKFAGILGFTDELEDYSAEAERIKLNYNKQLLHSLPENSPRYAYCKLGGQFDPANQVVQAIPLAFNLVPEEQLHNVEHALLQAVASRQFHSGEIGLRYLFLALSRLNRNDIVLDMMMQPEHPSYIRFVERGETSLPEFWTDEARSRNHDMMGHILEWLYKELLGISSASGAYKEILIAPFRSGRVKRVKGVHHSIRGEIGVEFSHSAEEIILNVQIPANTTATLQIPLLHGESQLYERGTRVLYEPFNQGAQIYARLKIGSGSYSYVNRV
B4: 1009 (protein)
chain: MFKILRPIGFLAALLLLTGEMVMGQKSTQIISPSVFQNPPSTYGIRCWWWWLNGNVDKEVITRDLEEMKAKGFSGACLFDAGGAEQRGNAQVPAGPMFGSPQWRELYIHAMREADRLGLVMSMSIQSGWNLGGPDITAEESAKQVAFSQVQVKGNTRISQELPMPKTHHDFYRDIVVLAIPTKVFANRPPIRDFENKAATREVGASVPETRPLLTDIPGTPGEEDASKKQVLNITRHFKNGKLEWRAPAGEWTVLRFGYTATDAEVSTSSGDWQGLVIDYMSEKAFNRYWDTNVEPLLKAIGPLAGKTLRYLQTDSFEAGGMNWTDGFEKEFIKHRGYDPIPYLPVLAGKIIDSREVSNRFLSDLRKTLADLIAEKHYGVFSKRSAAYGIGIQPESAGPHAGPFDGLKNYGYSEIMMSEFWSPSPHRPRPIDRFFVKQAGSAAKIHNKKLVGAESFTTIGPHWNDVMWSDMKPSVDHEFSAGLNLVYLHTFTASPKAMGIPGQEYFAGTHFNPNVTWWNQSTAFIQYLTRCQYLLQSGTSVADVLYYYGDHSPNLGRLKEDDPAKALPGFDYDLINEDRLMELQAKDGKIFLPHGVSYRVLVLPDHKTLSLKALQKVEALVKEGASVIGSKTVTTASLVKYPASEQTVRQIADGLWGTGNEATGSRNVGKGTIAWGITAADFLRSKGVHFDMEITARETGSRYDYIHREDTGADFYFISSQNRAASKMTAAFRMTGKQPELWNPVTGETRPATSFYQKDGKTYIPLEFDPYGSVFVVFRDDIAKDQNGSAASNFVHLETATTLHGSWDVAFDPAWGGPAAVVFNELVSWPDRNEEGIKYYSGKAVYSKKFDASQDVAESKQVFLDLGEVKDIGIAKVTLNGKDLGILWAPPLRVPVGGVLKEKDNVLQIEVVNTWRNRLIGDRTKPVEKRFTKTNVKVLETWQLTPSGLLGPVRLLTGSEQ
modifications: Dyadobacter fermentans
B5: 1081 (protein)
chain: MKNSNLFAKLLAVVLIFLSNPTLAVEWTAEWIWSKERFTDPNSWVVIRKEVNLESVGQNSTAYISADTKYWLWINGQLVVFEGSYTGGPSPVKPSPRVDFYPIASNKYYDQVDIGRYLKKGKNTIAALAWYYGDNGQKGTYISSNTGGFIFQAHVGDNVIATDSSWKVLPHPAYDKKVIKKSPYRVAAWSVKYDARKDLNDWSNKAWYMPGYDDSDWQTPRIKRQPPRPPFFGLYPSEIPPLNNYGLANCENYPESKFPFISDGKTIKCKLDFNKNFTPYFDIEAKAGQQIHIKSNMRLNTIETFYTTKAGRQQFESYSWLNGRIIEYRIPKGVKVHGLKYRWTGVGTTPGHFEADDAWYSRIWQMAENTLYICARDNFMDTPDRERGLWIGDVADQASYLFYSMDKPGRDLLKKAIKVTLAFSDSESGIFAGLGPGRFRELPAQSLQFIEQGIWHYYYNTGDLETLKFAYPYVHRYLTLWGIKDNGLATFRTGDWKWTDWGPQDTIDYDVIQNALYYSALVSARKMAKAVGDYTHIGLYSHRINSIKQAYQKHYWQNGYFSSNPNKFKDDRANAIAILFGLAKPEQYQQIVDNVLIPNHFASPHFEWMVYNAMAIAGRYEDALQRMKTRYAKQVDNQALSTLAEYLPSGGTENHAWNAPSTVLSQHIAGIAPTSVAWESYQVMPNMAHFKRVKQFVPSVQGDIDFEIQRDQQTVKIEIDSPENTTAIIGVPKQYFAIQTIMVNGKKLWENGQLTASISGIKLAGEDNKYVKFEVQPGHWLVTAQR
modifications: Catenovulum agarivorans
B6: 1044 (protein, listed as Streptomyces sp.)
chain: MHETHPRRGGMTRRSVLAAGLTTGVLAALGPAAEAAASPAASPAASPAASASAGATPTASWFAAPARAVRPKFRWWWPDGLVDPAEIAREIDQMADAGFGGAEIAAVHHSISDTSVLDTAHHGWGSAPWRDGVKAALRQAARRGLTVDLTLGPSWPVAVPGVTPDDEAAVKELAYGKATLTGGAAFDGPVPAPVYAPASGVTVQKLFAVQAARVDTAYSSGKATGLDVDSVTDLTNRVADGNLRWTPPDSGTWVVLSYWQRGSGQQPEAGPHSSPAAYVIDHFSAAGTAAVTRYWDTAILDSTLRKLLKAAGGAFFEDSVELESKGLQWTPGLPDAFRAHTGRDLLPYLPAVILDNSNQVFAFEARLTQEIRHDFWETVSNLFNEHHLGALKKWAHGHGMKLRSQPYGLQTDAIASAAVLDIPEGESLGFKNLDDYRCLAGGRDMAGSRVLSCESGAYAGGAYNTTWDKFLRTMGGAYAAGVNQTVIHGFSYATAPGVSWPGFAAFSPYSGAPGYGESWGPRQPTWHHVADVAGYIGRVQQVLQSGTVRADVAVFRQTGYTATGIGASWLTSTGVPLGWTHQFLSGPLLDLPNAKVSGKRLAPDGPAYKALFLEGDFFYGSTPTLSVDDAHKLLKFARAGLPTVLLGAFGQALTPGLPDDGETDELRALTAELLALPNVRNVTDKTLVGAAFAELGVTSDVSYSVSSTLLNAHRVTDDADFYYLCNGKHAETVKPPVAAIDHDVTLRSTVRGGAGTVPYLLDPWSGRVTRLARYTRDGDAFTFRVTLQPGETLVVALGRPGLFGNRDGNRPHAVATDADEALFTGGRLAVRASAAGTFTTTLSTGRKVTTKVAEVPAAVTPDRWTLSVDDWRPGADATSTEVVRHSLTLDALLPWSQIPELADVGGIGTYRTTVTLPKSWSSATGALLRLGSVTDTCRVTVNGVRLDPVDRVNPVVDLGGRLRKGANTLEIEVATPLFNRLRVSNPAVFGTAARQAYGLVGPVQLVPYVQRTVA

Columns and labels:
Type in all cases: biochemical, Quillaja saponaria
[1] = Experiment 6-1: screening of rhamnosidases for derhamnosylation of saponins in treated bark extract (2%), QS-17 2310 to QS-18 2164 (PAR %); settings: TBE 2%, pH 7.5, 30 degC, 18 h; TIC peak area ratio percent, LCMS/MS; negative controls 3.061, 2.429
[2] = Experiment 6-1: screening of rhamnosidases for derhamnosylation of saponins in treated bark extract (2%), QS-17 2296 to QS-18 2150 (PAR %); settings: TBE 2%, pH 7.5, 30 degC, 18 h; TIC peak area ratio percent of rhamnosylated starting saponin to derhamnosylated product, LCMS/MS; negative controls 4.876, 5.225
[3] = Experiment 6-1: specificity of rhamnosidases towards other rhamnose residues (C3 saccharide rhamnose, C28 saccharide rhamnose); settings: TBE 2%, pH 7.5, 30 degC, 18 h; LCMS/MS; negative controls 0.18, 0.17
[4] = Experiment 6-1: screening of rhamnosidases for derhamnosylation of saponins in treated bark extract (2%), desglucosyl-QS-17 2134 to QS-21 1988 (PAR %); settings: TBE 2%, pH 7.5, 30 degC, 18 h; TIC peak area ratio percent, LCMS/MS; negative controls 2.719, 2.158

Molecule	Peak57 (PAR %) [1] [%]	QS-17 (PAR %) [2] [%]	ratio PP/QS-21 [3]	Peak75 (PAR %) [4] [%]
B1	3.245	5.457	0.17	2.462
B2	2.933	5.495	0.18	2.330
B3	3.148	5.476	0.16	2.296
B4	3.762	5.408	0.16	2.379
B5	2.624	5.348	0.17	2.473
B6	3.156	5.370	0.16	2.274
